The values below come from doi:10.1101/481457 (bioRxiv, 2019).

The assay concerns the target T1, CBP Full-HAT domain (central core catalytic region), 6His-tagged (mouse, UniProt P45481 1096-1700).
T1 sequence (looked up): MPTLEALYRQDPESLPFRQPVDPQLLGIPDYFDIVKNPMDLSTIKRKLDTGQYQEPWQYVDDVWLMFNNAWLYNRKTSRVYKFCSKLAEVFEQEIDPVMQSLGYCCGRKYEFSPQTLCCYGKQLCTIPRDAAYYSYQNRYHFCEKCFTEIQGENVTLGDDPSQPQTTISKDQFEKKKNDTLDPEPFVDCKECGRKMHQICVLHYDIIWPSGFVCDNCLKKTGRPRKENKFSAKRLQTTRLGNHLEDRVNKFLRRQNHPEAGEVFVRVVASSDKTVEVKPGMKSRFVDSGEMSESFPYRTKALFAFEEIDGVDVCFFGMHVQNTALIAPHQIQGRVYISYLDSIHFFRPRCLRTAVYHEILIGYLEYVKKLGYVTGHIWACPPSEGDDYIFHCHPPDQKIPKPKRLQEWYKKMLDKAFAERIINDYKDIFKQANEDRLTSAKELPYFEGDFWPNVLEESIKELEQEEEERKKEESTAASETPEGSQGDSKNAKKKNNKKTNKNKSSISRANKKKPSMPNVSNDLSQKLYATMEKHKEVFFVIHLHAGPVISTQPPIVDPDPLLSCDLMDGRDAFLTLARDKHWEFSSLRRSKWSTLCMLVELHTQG
Briefly: BLI. For orientation: BLI is a label-free optical method that tracks binding on a fibre tip over time.

As usually defined, the Kd is the equilibrium constant for the complex coming apart. Higher therefore signals a looser complex.

B1: biotinylated recombinant full-length HSF2 (natural protein, UniProt Q03933 1-536, looked up)
chain: MKQSSNVPAFLSKLWTLVEETHTNEFITWSQNGQSFLVLDEQRFAKEILPKYFKHNNMASFVRQLNMYGFRKVVHIDSGIVKQERDGPVEFQHPYFKQGQDDLLENIKRKVSSSKPEENKIRQEDLTKIISSAQKVQIKQETIESRLSELKSENESLWKEVSELRAKHAQQQQVIRKIVQFIVTLVQNNQLVSLKRKRPLLLNTNGAQKKNLFQHIVKEPTDNHHHKVPHSRTEGLKPRERISDDIIIYDVTDDNADEENIPVIPETNEDVISDPSNCSQYPDIVIVEDDNEDEYAPVIQSGEQNEPARESLSSGSDGSSPLMSSAVQLNGSSSLTSEDPVTMMDSILNDNINLLGKVELLDYLDSIDCSLEDFQAMLSGRQFSIDPDLLVDLFTSSVQMNPTDYINNTKSENKGLETTKNNVVQPVSEEGRKSKSKPDKQLIQYTAFPLLAFLDGNPASSVEQASTTASSEVLSSVDKPIEVDELLDSSLDPEPTQSKLVRLEPLTEAEASEATLFYLCELAPAPLDSDMPLLDS
modifications: biotinylated with EZ-Link NHS-PEG4-Biotin at a molar ratio biotin/protein 3:1
Turning to B1, the Kd was 1 nM.
